From patent publication US20220073604A1 (ARGENX BVBA, published 2022)

B1: Fab 18C9 (Fab, V domains shown)
VH: EVQLVESGGGLVQPGGSLRLSCAASGFTFSRNAMSWVRQAPGKGLEWVSAINSGGGSTSYADSVKGRFTISRDNAKNTLYLQMNSLKPEDTAVYYCAKEGYTGWKDPMYDYWGQGTQVTVSS
VL: LNFMLTQPSALSVTLGQTAKITCQGGSLGSRYAHWYQQKPGQAPVLVIYDDDSRPSGIPERFSGSSSGGRATLTISGAQAEDDGDYYCQSADSSGNASVFGGGTHLTVLG
notes: Fab
B2: Fab 29B11 (Fab, V domains shown)
VH: EVQLVESGGGLVQPGGSLRLSCAASGFTFSSYAMSWVRQAPGKGLEWVSRISSGGISTYYADSVKGRFTISRDNAKNTLYLQMNSLKPEDTAVYYCVRYAWGVQWAFDFWGQGTQVTVSS
VL: QSVLTQPPSVSGSPGQTVTISCAGTSEDVGYGNYVSWYQQLPGMAPKLLIYDVNKRASGIADRFSGSKSGNTASLTISGLQSEDEADYYCASYRRTIDNIFGGGTHLTVLG
notes: Fab
B3: Fab 24E9 (Fab, V domains shown)
VH: EVQLVESGGGLVQPGGSLRLSCAASGFTFSTYAMSWVRQAPGKGPEWVSRISSGGGSTNYADSVKGRFTISRDNAKKTLYLQMKSLKPEDTAVYYCANRAGWGMGDYWGQGTQVTVSS
VL: QTVVTQEPSLSVSPGGTVTLTCGLSSGSVTASNYPGWFQQTPGQAPRALIYSTNDRHSGVPSRFSGSISGNKAALTITGAQPEDEADYYCALDIGDITEFGGGTHLTVLG
notes: Fab
B4: Fab 24C9 (Fab, V domains shown)
VH: QVQLVESGGGLVQPGGSLRLSCAASGFTFSSYRMYWVRQPPGKGLEWVSAISAGGGSTYYGDSVKGRFTISRDNAKNTVYLQMNSLKPEDTALYYCKKSTWADGESDYWGQGTQVTVSS
VL: B3 VL
notes: Fab
B5: 133A9 (germlined variant of 68F2) (antibody, V domains shown)
VH: EVQLQESGPGLVKPSQTLSLTCTVSGGSITTRYYAWSWIRQPPGKGLEWIGVIDYEGDTYYSPSLKSRVTISVDTSKNQFSLKLSSVTAEDTAVYYCARDPDVVTGFHYDYWGQGTMVTVSS
VL: QSALTQPPLVSGSPGQTVTISCAGANNDIGTYAYVSWYQQPPGTAPKLMIYKVTTRASGIPDRFSGSISGNTASLTISGLQSEDEADYYCASYRNFNNAVFGTGTKLTVL

Columns and labels:
[1] = target: T1, bacterially produced human IL-6 (human, UniProt P05231 30-212); assay: SPR; purified Fab; IL-6 coated on CM5 chip;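 further: dissociation rate taken from the wash phase, association rate fitted over the injection phase with analyte concentration and dissociation rate as inputs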
T1 construct: also called bactIL-6; prokaryotic IL-6
Protocol: (§1) From the washing phase the off-rate (kd) was determined, while from the injection phase the on-rate (ka) was calculated using the concentration and off-rate as parameters.

[2] = target: T2, eukaryotically produced human IL-6 (human, UniProt P05231 30-212); assay: SPR; purified Fab; IL-6 coated on CM5 chip;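 further: dissociation rate taken from the wash phase, association rate fitted over the injection phase with analyte concentration and dissociation rate as inputs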
T2 construct: also called eukIL-6; Euk IL-6
Protocol: as §1

[3] = target: T1, bacterially produced human IL-6; assay: SPR; purified Fab over biotinylated IL-6 on streptavidin chip
Protocol: as §1

[4] = target: T1, bacterially produced human IL-6; assay: SPR; periplasmic fraction
[5] = target: T2, eukaryotically produced human IL-6; assay: SPR; periplasmic fraction
cynomolgus monkey IL-6 = target: T3, cynomolgus monkey IL-6 (cynomolgus monkey, UniProt P79341 28-212, limits assumed); assay: SPR; periplasmic fraction
T3 construct: also called HIS-cyIL-6

[6] = target: human IL-6 (as added in the B9 and 7TD1 bioassays) (human, UniProt P05231 30-212); assay: cell-based or functional assay

Binder	Kd [1] [nM]	koff [1] [s⁻¹]	Kd [2] [nM]	koff [2] [s⁻¹]	Ka [3] [M⁻¹]	Kd [3] [nM]	koff [3] [s⁻¹]	kon [3] [M⁻¹ s⁻¹]	other results
B1	4.9	0.00036	2.4	0.00021	4.67e+07	21.4	0.00119	55600	–
B2	0.93	0.00022	0.51	0.0001	4.36e+07	22.9	0.00298	130000	Ka [4]: 1.91e+09 M⁻¹; Kd [4]: 0.524 nM; koff [4]: 0.000131 s⁻¹; kon [4]: 251000 M⁻¹ s⁻¹; Ka [5]: 1.83e+09 M⁻¹; Kd [5]: 0.546 nM; koff [5]: 0.000102 s⁻¹; kon [5]: 187000 M⁻¹ s⁻¹; Ka (cynomolgus monkey IL-6): 1.51e+08 M⁻¹; Kd (cynomolgus monkey IL-6): 6.61 nM; koff (cynomolgus monkey IL-6): 0.000746 s⁻¹; kon (cynomolgus monkey IL-6): 113000 M⁻¹ s⁻¹
B3	0.93	0.00029	0.71	0.00024	8.38e+08	1.19	0.000139	117000	–
B4	2.6	0.00037	1.7	0.0003	1.51e+09	0.661	8.77e-05	133000	–
B5	–	–	–	–	–	–	–	–	IC50, 7TD1 cells [6]: 0.00018 nM; Potency relative to 68F2, 7TD1 cells [6]: 3.66
